Measurements: US20200031947A1 (RINAT NEUROSCIENCE, published 2020)

T1: human GITR (hGITR), soluble analyte (human, UniProt Q9Y5U5 26-162)
T1 sequence: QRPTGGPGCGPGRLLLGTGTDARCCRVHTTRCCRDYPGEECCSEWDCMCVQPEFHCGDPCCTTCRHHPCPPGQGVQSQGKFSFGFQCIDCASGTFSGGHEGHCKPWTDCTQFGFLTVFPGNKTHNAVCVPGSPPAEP


Key:
[1] = molecular target: T1, human GITR (hGITR), soluble analyte; assay: SPR (Biacore T200), 37 C; antibody captured on anti-human Fc chip, GITR as analyte; 1:1 Langmuir fit
Method: (§1) The sensor chip preparation was performed at 25° C. with a running buffer of 10 mM HEPES, 150 mM NaCl, 0.05% (v/v) Tween-20, pH 7.4. An anti-human Fc sensor chip was made by activating all flow cells of a Biacore CM4 sensor chip with a 1:1 (v/v) mixture of 400 mM EDC and 100 mM NHS for 7 minutes, at a flow rate of 10 μL/min. An anti-human Fc reagent (Goat Anti-Human IgG Fc, SouthernBiotech Catalog #2081-01) was diluted to […] in 10 mM Sodium Acetate pH 4.5 and injected on all flow cells for 7 minutes at 20 μL/min. All flow cells were blocked with 100 mM ethylenediamine in 150 mM Borate buffer pH 8.5 for 7 minutes at 10 μL/min.
(§2) Antibodies were captured from undiluted supernatants onto downstream flow cells (flow cells 2, 3 and 4) at a flow rate of 10 μL/min for 2 minutes. Different antibodies were captured on each flow cell. Flow cell 1 was used as a reference surface. Following capture of antibodies, analyte (buffer, hGITR, or cyGITR) was injected at 30 μL/min on all flow cells for two minutes. After the analyte injection, dissociation was monitored for 10 minutes followed by regeneration of all flow cells with three 1-minute injections of 75 mM Phosphoric Acid. For each captured antibody, the following analyte injections were performed: buffer, 20 nM hGITR, 200 nM hGITR, 20 nM cyGITR and 200 nM cyGITR. Buffer cycles were collected for each captured antibody for double-referencing purposes (double-referencing as described in Myszka, J. Mol. Recognit. 12:279-284 (1999). The double-referenced sensorgrams were fit globally to a simple 1:1 Langmuir with mass transport binding model.

[2] = molecular target: T2, cynomolgus GITR (cyGITR), soluble analyte (cynomolgus); assay: as above
T2 construct: Soluble analyte in SPR; construct not described; also called cGITR
Method: as §1, §2

Kd [1] | koff [1] | t1/2 [1] | Kd [2] | kon [1] | koff [2] | t1/2 [2] | kon [2] | Binder
> 100 nM | 0.0563 s⁻¹ | 12.6 s | > 100 nM | – | – | – | – | h10H2 HU (antibody, V domains shown, Whole IgG captured on an anti-human Fc chip) VH: QVQLVQSGAEVKKPGSSVKVSCKASGGTFSRYWIEWVRQAPGQGLEWMGEILPGSGVTNYNEKFKGRVTITADESTSTAYMELSSLRSEDTAVYYCARKGTYYAMDYWGQGTSVTVSS VL: EIVLTQSPGTLSLSPGERATLSCRASQSIGTSIHWYQQKPGQAPRLLIYYASESVSGIPDRFSGSGSGTDFTLTISRLEPEDFAVYYCQQTYSWPATFGQGTKVEIK
6.6 nM | 0.00154 s⁻¹ | 450 s | > 100 nM | 233000 M⁻¹ s⁻¹ | 0.011 s⁻¹ | 66 s | – | h10H2 AM (antibody, V domains shown, Whole IgG captured on an anti-human Fc chip) VH: QVQLVQSGAEVKKPGSSVKVSCKASGGTFSRYWIEWVRQAPGQGLEWMGEILPGSGVTFENEKFKGRVTITADESTSTAYMELSSLRSEDTAVYYCARKGRYYAMDYWGQGTLVTVSS VL: EIVLTQSPGTLSLSPGERATLSCRASQSIGTSIHWYQQKPGQAPRLLIYYASESVSGIPDRFSGSGSGTDFTLTISRLEPEDFAVYYCQQTYSWPATFGQGTKVEIK
17 nM | 0.019 s⁻¹ | 36.6 s | 13 nM | 1.1e+06 M⁻¹ s⁻¹ | 0.0088 s⁻¹ | 78 s | 670000 M⁻¹ s⁻¹ | h3G7 AM (antibody, V domains shown, Whole IgG captured on an anti-human Fc chip) VH: QVQLVQSGAEVKKPGASVKVSCKASGYTFTGATMNWVRQAPGQGLEWMGLINPYNGGIRYNQKFKGRVTMTRDTSTSTVYMELSSLRSEDTAVYYCARIGGYYDSMDYWGQGTLVTVSS VL: DIQMTQSPSSLSASVGDRVTITCRASESVDPRGINFLNWYQQKPGKAPKLLIYAASNQAKGVPSRFSGSGSGTDFTLTISSLQPEDFATYYCQQALELPWTFGGGTKVEIK
22 nM | 0.015 s⁻¹ | 45.6 s | 69 nM | 690000 M⁻¹ s⁻¹ | 0.023 s⁻¹ | 30.6 s | 330000 M⁻¹ s⁻¹ | h3G7 LF (antibody, V domains shown, Whole IgG captured on an anti-human Fc chip) VH: QVQLVQSGAEVKKPGASVKVSCKASGYTFTGATMNWVRQAPGQGLEWMGLINPYTGGIRYNQKFKGRVTMTRDTSTSTVYMELSSLRSEDTAVYYCARIGGYYDTMDYWGQGTLVTVSS VL: DIQMTQSPSSLSASVGDRVTITCRASESVEPRGINFLNWYQQKPGKAPKLLIYAASQASKGVPSRFSGSGSGTDFTLTISSLQPEDFATYYCQQALELPWTFGGGTKVEIK
